Assay results as given in article PMC9482650, “Quantitative fragmentomics allow affinity mapping of interactomes” (Nature Communications, 2022).

T1: DVL3, Q92997
T1 sequence (Q92997 244-331, limits assumed, looked up): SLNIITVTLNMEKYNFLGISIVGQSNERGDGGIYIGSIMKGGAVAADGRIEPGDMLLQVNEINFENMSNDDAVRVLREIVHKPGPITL

T2: DFNB31_1, Q9P202
T2 sequence (Q9P202 135-233, limits assumed, looked up): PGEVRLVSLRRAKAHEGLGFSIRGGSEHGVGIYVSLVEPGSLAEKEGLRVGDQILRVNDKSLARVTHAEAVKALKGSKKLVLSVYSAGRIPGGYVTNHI

T3: GRIP1_7, Q9Y3R0
T3 sequence (Q9Y3R0 999-1096, limits assumed, looked up): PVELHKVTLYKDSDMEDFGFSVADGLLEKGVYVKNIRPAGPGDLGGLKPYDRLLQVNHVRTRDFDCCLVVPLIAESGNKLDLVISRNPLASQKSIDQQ

T4: MPP7, Q5T2T1
T4 sequence (Q5T2T1 134-230, limits assumed, looked up): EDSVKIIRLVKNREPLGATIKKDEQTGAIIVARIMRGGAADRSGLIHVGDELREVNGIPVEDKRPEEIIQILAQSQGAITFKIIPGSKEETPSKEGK

T5: CARD11, Q9BXL7
T5 sequence (Q9BXL7 662-765, limits assumed, looked up): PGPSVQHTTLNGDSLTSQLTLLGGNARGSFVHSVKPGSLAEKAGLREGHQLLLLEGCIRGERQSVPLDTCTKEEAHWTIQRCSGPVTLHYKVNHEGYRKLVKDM

T6: MPDZ_12, O75970
T6 sequence (O75970 1857-1958, limits assumed, looked up): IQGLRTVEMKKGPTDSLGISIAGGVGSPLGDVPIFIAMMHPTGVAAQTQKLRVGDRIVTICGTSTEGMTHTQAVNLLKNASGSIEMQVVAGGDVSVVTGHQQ

T7: RHPN1, Q8TCX5
T7 sequence (Q8TCX5 508-602, limits assumed, looked up): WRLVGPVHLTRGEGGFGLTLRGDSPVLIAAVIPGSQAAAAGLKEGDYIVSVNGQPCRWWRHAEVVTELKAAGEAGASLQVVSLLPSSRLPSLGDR

T8: LRRC7, Q96NW7
T8 sequence (Q96NW7 1440-1537, limits assumed, looked up): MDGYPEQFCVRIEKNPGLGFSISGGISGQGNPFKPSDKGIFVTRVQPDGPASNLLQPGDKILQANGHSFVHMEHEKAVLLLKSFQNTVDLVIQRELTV

T9: PCLO, Q9Y6V0
T9 sequence (Q9Y6V0 4491-4600, limits assumed, looked up): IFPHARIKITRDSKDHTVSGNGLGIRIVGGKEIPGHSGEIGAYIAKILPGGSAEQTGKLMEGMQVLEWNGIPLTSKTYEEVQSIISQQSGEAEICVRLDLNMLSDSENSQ

B1: SLC1A5, Q15758 (peptide)
chain: TVASEKESVM
B2: DLGAP4, Q9Y2H0 (peptide)
chain: IYVPEAQTRL
B3: HPV16-E6, P03126 (peptide)
chain: SSRTRRETQL

Assays:
Assay in all cases: holdup assay
Parameters in all cases: key: below the threshold = too weak to quantify, mostly under pKd 3.1 to 4
Details in all cases: plain residues with an end cap or a label only (N-terminal biotin on a linker: ttds)
[1] = molecular target: T1, DVL3, Q92997
[2] = molecular target: MAGI1_2, Q96QZ7
Sequence of MAGI1_2, Q96QZ7 (Q96QZ7 456-580): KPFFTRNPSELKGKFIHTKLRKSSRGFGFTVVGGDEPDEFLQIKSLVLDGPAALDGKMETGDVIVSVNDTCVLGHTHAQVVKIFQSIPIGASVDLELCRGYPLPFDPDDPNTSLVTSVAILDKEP

[3] = molecular target: IL16_4, Q14005
Sequence of IL16_4, Q14005 (Q14005 1229-1329): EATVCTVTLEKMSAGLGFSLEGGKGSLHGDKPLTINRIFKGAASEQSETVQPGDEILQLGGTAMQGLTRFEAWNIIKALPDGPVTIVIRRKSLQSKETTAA

[4] = molecular target: GRASP, Q7Z6J2
Sequence of GRASP, Q7Z6J2 (Q7Z6J2 96-193): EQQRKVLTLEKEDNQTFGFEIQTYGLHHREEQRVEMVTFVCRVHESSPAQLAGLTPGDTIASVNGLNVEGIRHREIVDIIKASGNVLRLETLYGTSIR

[5] = molecular target: GORASP2, Q9H8Y8
[6] = molecular target: MAST2, Q6P0Q8
Sequence of MAST2, Q6P0Q8 (Q6P0Q8 1099-1202): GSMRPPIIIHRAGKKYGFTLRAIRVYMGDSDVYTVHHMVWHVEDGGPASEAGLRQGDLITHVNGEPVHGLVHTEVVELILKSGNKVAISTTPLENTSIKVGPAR

[7] = molecular target: CASK, O14936
Sequence of CASK, O14936 (O14936 487-570): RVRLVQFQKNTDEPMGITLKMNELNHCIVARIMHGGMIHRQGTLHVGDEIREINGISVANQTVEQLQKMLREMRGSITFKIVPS

[8] = molecular target: T2, DFNB31_1, Q9P202
[9] = molecular target: MAST1, Q9Y2H9
Sequence of MAST1, Q9Y2H9 (Q9Y2H9 962-1065): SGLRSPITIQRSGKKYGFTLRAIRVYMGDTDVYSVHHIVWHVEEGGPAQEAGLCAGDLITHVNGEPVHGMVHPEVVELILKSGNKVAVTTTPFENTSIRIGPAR

[10] = molecular target: MAGI2_2, Q86UL8
Sequence of MAGI2_2, Q86UL8 (Q86UL8 410-522): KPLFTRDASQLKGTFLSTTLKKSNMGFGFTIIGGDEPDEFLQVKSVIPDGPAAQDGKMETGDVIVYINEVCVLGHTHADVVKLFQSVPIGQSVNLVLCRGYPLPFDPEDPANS

[11] = molecular target: T3, GRIP1_7, Q9Y3R0
[12] = molecular target: TJP1_3, Q07157
Sequence of TJP1_3, Q07157 (Q07157 416-512): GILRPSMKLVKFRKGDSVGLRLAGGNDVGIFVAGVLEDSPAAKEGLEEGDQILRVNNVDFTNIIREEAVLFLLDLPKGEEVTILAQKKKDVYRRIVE

[13] = molecular target: T4, MPP7, Q5T2T1
[14] = molecular target: FRMPD4, Q14CM0
Sequence of FRMPD4, Q14CM0 (Q14CM0 67-160): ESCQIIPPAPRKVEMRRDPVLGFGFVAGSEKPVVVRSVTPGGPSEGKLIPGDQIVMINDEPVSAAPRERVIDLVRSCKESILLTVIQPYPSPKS

[15] = molecular target: T5, CARD11, Q9BXL7
[16] = molecular target: IL16_1, Q14005
Sequence of IL16_1, Q14005 (Q14005 210-306): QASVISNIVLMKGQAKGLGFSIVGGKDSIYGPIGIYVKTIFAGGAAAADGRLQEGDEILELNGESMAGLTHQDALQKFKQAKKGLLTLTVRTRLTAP

[17] = molecular target: Inadl_4, Q8NI35
Sequence of Inadl_4, Q8NI35 (Q8NI35 547-651): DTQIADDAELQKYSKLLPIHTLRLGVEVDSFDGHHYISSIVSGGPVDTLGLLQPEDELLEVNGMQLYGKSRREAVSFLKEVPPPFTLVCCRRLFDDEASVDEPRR

[18] = molecular target: FRMPD2_2, Q68DX3
Sequence of FRMPD2_2, Q68DX3 (Q68DX3 944-1038): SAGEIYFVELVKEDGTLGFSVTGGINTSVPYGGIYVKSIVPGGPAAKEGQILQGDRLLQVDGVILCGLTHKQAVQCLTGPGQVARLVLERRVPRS

[19] = molecular target: DLG2_2, Q15700
[20] = molecular target: NOS1, P29475
Sequence of NOS1, P29475 (P29475 9-101): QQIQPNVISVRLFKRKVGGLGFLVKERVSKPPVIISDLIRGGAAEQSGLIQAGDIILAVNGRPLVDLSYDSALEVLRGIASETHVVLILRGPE

[21] = molecular target: Inadl_1, Q8NI35
Sequence of Inadl_1, Q8NI35 (Q8NI35 113-229): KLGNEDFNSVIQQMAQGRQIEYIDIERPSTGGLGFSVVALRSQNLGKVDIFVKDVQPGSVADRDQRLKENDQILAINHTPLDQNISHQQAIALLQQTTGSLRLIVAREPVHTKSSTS

[22] = molecular target: PTPN3, P26045
Sequence of PTPN3, P26045 (P26045 505-587): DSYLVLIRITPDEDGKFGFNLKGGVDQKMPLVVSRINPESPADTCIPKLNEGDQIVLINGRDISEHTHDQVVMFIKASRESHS

[23] = molecular target: T6, MPDZ_12, O75970
[24] = molecular target: T7, RHPN1, Q8TCX5
[25] = molecular target: LIMK2, P53671
Sequence of LIMK2, P53671 (P53671 143-248): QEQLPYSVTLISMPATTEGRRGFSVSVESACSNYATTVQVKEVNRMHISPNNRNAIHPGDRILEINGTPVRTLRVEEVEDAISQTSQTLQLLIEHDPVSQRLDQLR

[26] = molecular target: SCRIB_1, Q14160
Sequence of SCRIB_1, Q14160 (Q14160 718-814): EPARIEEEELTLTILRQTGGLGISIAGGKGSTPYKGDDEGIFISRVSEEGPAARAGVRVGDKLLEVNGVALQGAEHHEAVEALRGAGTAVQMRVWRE

[27] = molecular target: NHERF2_2, Q15599
Sequence of NHERF2_2, Q15599 (Q15599 142-238): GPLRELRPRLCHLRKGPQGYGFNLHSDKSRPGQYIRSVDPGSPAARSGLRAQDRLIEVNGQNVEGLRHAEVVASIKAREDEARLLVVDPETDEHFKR

[28] = molecular target: DLG2_3, Q15700
[29] = molecular target: T8, LRRC7, Q96NW7
[30] = molecular target: T9, PCLO, Q9Y6V0

Row | Binder | pKd [1] | pKd [2] | pKd [3] | pKd [4] | pKd [5] | pKd [6] | pKd [7] | pKd [8] | pKd [9] | pKd [10] | pKd [11] | pKd [12] | pKd [13] | pKd [14] | pKd [15] | pKd [16] | pKd [17] | pKd [18] | pKd [19] | pKd [20] | other results
1 | B1 | below the threshold | below the threshold | below the threshold | below the threshold | below the threshold | 4.61 | below the threshold | 3.65 | 4.2 | below the threshold | 3.67 | below the threshold | below the threshold | below the threshold | below the threshold | below the threshold | below the threshold | below the threshold | below the threshold | below the threshold | pKd [21]: 3.64; pKd [22]: 4.94; pKd [23]: below the threshold; pKd [24]: 3.67; pKd [25]: below the threshold; pKd [26]: 5.2; pKd [27]: 3.51; pKd [28]: below the threshold; pKd [29]: below the threshold; pKd [30]: below the threshold
2 | B2 | below the threshold | below the threshold | below the threshold | 4.2 | below the threshold | 6.16 | below the threshold | 3.96 | 5.01 | below the threshold | 3.77 | below the threshold | below the threshold | 4.25 | below the threshold | below the threshold | below the threshold | below the threshold | below the threshold | 3.76 | pKd [21]: below the threshold; pKd [22]: 4.38; pKd [23]: below the threshold; pKd [24]: 4.42; pKd [25]: below the threshold; pKd [26]: 5.3; pKd [27]: 4.84; pKd [28]: below the threshold; pKd [29]: below the threshold; pKd [30]: below the threshold
3 | B3 | below the threshold | 5.91 | below the threshold | below the threshold | 4.02 | 5.66 | below the threshold | 3.53 | 4.23 | 4.87 | below the threshold | below the threshold | below the threshold | 3.83 | below the threshold | below the threshold | below the threshold | below the threshold | 4.93 | 4.08 | pKd [21]: below the threshold; pKd [22]: 5.06; pKd [23]: below the threshold; pKd [24]: 4.23; pKd [25]: below the threshold; pKd [26]: 5.42; pKd [27]: 4.19; pKd [28]: 5.1; pKd [29]: 3.9; pKd [30]: below the threshold
